Patent publication US10562935B2, “Stapled peptides and uses thereof” (London Health Sciences Centre Research Inc., priority 2015, dated 2020)
Bridges are numbered along the chain shown (N, C = ends).

Legend:
[1] = tested on: RHAMM-overexpressing (LR21) cells; test: Cell migration assay (Boyden chamber, Chemicon ECM510); type: cell-based; conditions: for inhibition of cell migration (in words): 10 ng/mL peptide, 20 hours, compared to 30% serum control; for Migration (% inhib.): % inhibition relative to positive control
Method: Compounds 132, 133, 150-152, 156-161, 265-269, 275, 277, and 278 were evaluated for their ability to inhibit cell migration. Cell migration assays were performed using Chemicon Assay Kits (ECM510 (Migration); Billerica, Mass., USA) according to the manufacturer's protocol. Briefly, sub-confluent cultures of RHAMM-overexpressing (LR21) cells were serum starved overnight. 7.5×10^4 cells were then plated in the upper chamber of a Boyden chamber. either in the presence or absence of 10 ng/mL of peptide. 30% fetal bovine serum in DMEM was used as the chemo-attractant in the lower chamber. The number of cells that had crossed the membrane after 20 hours was assessed using the CYQUANT GR Dye and lysis buffer solution provided in the kit. Fluorescence was measured with a fluorescent plate reader using a 480/520 nm filter set.
Values are the mean and SDM of n=3 replicates. *p<0.05, **p<0.01. All statistics compare to 30% serum control. In FIGS. 41-43, where bars are labeled with two compound numbers (“133/150” and “135/152”) this means that the data were pooled for the indicated compounds, i.e., for the non-acetylated and acetylated versions of the indicated peptides.

[2] = Direct HA-binding ELISA of biotinylated peptides on HA coated plates (Example 4); set-up: key to HA binding: absorbance (color) read at 450 nm; conditions: for HA binding: as repeated in tables 16, 18, 20; for HA direct binding (OD): optical density, summary tables 15, 17, 19
Method: Each of these peptides was biotinylated at its amino-terminus, and an AEEA spacer was included to separate the peptide sequence from the biotin molecule.
HA coated plates were purchased (ECHELON). Peptides were dissolved in 2 mM PBS to constant molarity, aliquoted and stored at −20° C. until used in assays. 7 kDa biotin-labeled RHAMM (SEQ ID NO: 1) was synthesized and used as a positive control in these assays. Biotin labeled peptides were added to the HA coated wells (n=3 replicates/peptide) at either 0.8 or 0.08 μM and then incubated with shaking overnight at 4° C. Wells were washed free of excess unbound peptides using 200 μl PBS (4 times). 100 μl of Streptavidin-HRP was then added to each well and the plate was incubated at room temperature for 1 hr. The plate was then washed with 200 μl PBS/well 4 times and TMB Liquid Substrate System for ELISA (Sigma) was added to each well, incubated for 5-10 min at room temperature and color read at 450 nm Plate Reader (BioTek, SYNERGY H4, Hybrid Reader).
Direct HA-binding results for the biotinylated equivalents of compounds 132 and 150-161 are show in FIG. 39, and results for compounds 265-268 and 275-278 are shown in FIG. 40.

[3] = Circular dichroism (CD) spectroscopy of linear and stapled peptides in water or 40% TFE/water (Example 3); type: physicochemical; conditions: for [0]208 mean residue ellipticity: λ = 208 nm; for [0]222 mean residue ellipticity: λ = 222 nm
Method: CD spectra were obtained on a Jasco J-810 spectropolarimeter and recorded in the range of 180-260 nm. Peptide solutions were prepared with a 0.1M phosphate buffer solution to a concentration of 0.5 mM. The measurements were performed in quartz cuvettes with a path length of 1 mm and a scanning speed of 10-50 nm/min. Five individual data points were averaged by the instrument in order to obtain the reported CD spectrum. The measurements were carried out at 20° C. A blank solution of 0.1M phosphate buffer solution was run before every measurement in order to baseline correct for any UV-interference observed from the buffer.
CD data for the 14- and 15-mer peptides containing HABD2 (VSKLRSQLVKRKQN, SEQ ID NO: 2) and HABD1 (NLKQKIKHVVKLKDE, SEQ ID NO: 4) and cyclized derivatives thereof in water or 40% TFE/water are provided below in Tables 8 (water) and 9 (40% TFE/water). Tables 8 and 9 provide the mean residue ellipicity ([θ] deg cm^2 dmol^−1) at λ=222 and 208 nm for each peptide and ratios of ellipticities at 222/208. Each of the peptides was acetylated at its amino terminus and amidated at its carboxy terminus.
CD data for linear peptides having the sequences […] (SEQ ID NO: 5) and […] (SEQ ID NO: 6) and cyclized derivatives thereof in water or 40% TFE/water are provided below in Tables 12 (water) and 13 (40% TFE/water). Tables 12 and 13 provide the mean residue ellipicity ([0] deg cm^2 dmol^−1) at λ=222 and 208 nm for each peptide and ratios of ellipticities at 222/208. Each of the peptides was acetylated at its amino terminus and amidated at its carboxy terminus.
Circular Dichroism (CD) spectroscopy is a tool that is used to study the secondary structure characteristics of a compound. Peptides and proteins can fold into organized structures, such as alpha helices and beta sheets, which are the result of complex hydrogen bonding and other interactions between amino acid side chains, as well as adopt a random coil formation, which lacks much of the organization of the other two structures. The CD spectrum of an alpha helix is characterized by two local minima at 208 nm and 222 nm. The ratio of the values of the molar ellipticities at these wavelengths ([θ]222/[θ]208) is a strong indication of the relative helicity of a compound; a compound is more helical when the ratio of these two values approaches 1.0. Synthetic constraints introduced to the peptide backbone can force a peptide chain to increase its helical character. These constraints can be introduced by staples, of varying types, which allow cyclization of the peptide backbone to take place.

[4] = as repeated in tables 16, 18, 20
[5] = [θ]222/[θ]208 ratio in water, summary tables 15, 17, 19

| Substance | inhibition of cell migration (in words) [1] | HA binding [2] | direct HA binding (in words) ([2]; biotinylated equivalents of the named compounds, 0.8 or 0.08 μM, vs PBS only control) | [θ]222/[θ]208 ratio of ellipticities [3, 4] | [0]222/[0]208 ratio of ellipticities ([3]; in 40% TFE/water) | [0]222/[0]208 ratio of ellipticities ([3]; in water) | [0]208 mean residue ellipticity ([3]; in 40% TFE/water) | [0]208 mean residue ellipticity ([3]; in water) | [0]222 mean residue ellipticity ([3]; in 40% TFE/water) | [0]222 mean residue ellipticity ([3]; in water) | Migration (% inhib.) [1] | HA direct binding (OD) [2] | [θ]222/[θ]208 ratio of ellipticities [3, 5] | alpha-helical character by CD (in words) ([3]; in water) |
| --- | --- | --- | --- | --- | --- | --- | --- | --- | --- | --- | --- | --- | --- | --- |
| Ac-(cyclo-6,10)-VSKLR[EQLVK]RKQN-NH2 (Ac-VSKLREQLVKRKQN-NH2; lactam 6-10; SMILES CC(=O)N[C@H](C(=O)N[C@@H](CO)C(=O)N[C@@H](CCCCN)C(=O)N[C@@H](CC(C)C)C(=O)N[C@@H](CCCNC(=N)N)C(=O)N[C@H]1CCC(=O)NCCCC[C@@H](C(=O)N[C@@H](CCCNC(=N)N)C(=O)N[C@@H](CCCCN)C(=O)N[C@@H](CCC(N)=O)C(=O)N[C@@H](CC(N)=O)C(N)=O)NC(=O)[C@H](C(C)C)NC(=O)[C@H](CC(C)C)NC(=O)[C@H](CCC(N)=O)NC1=O)C(C)C) [Compound 152] | significantly inhibit cell migration | 0.005 | bound poorly to HA | 0.61 | 0.70 | 0.61 | -1.50E+04 deg cm^2 dmol^−1 | -7.90E+03 deg cm^2 dmol^−1 | -1.19E+04 deg cm^2 dmol^−1 | -4.85E+03 deg cm^2 dmol^−1 |  |  |  |  |
| Ac-(cyclo-7,11)-VSKLRS[ELVKK]KQN-NH2 (Ac-VSKLRSELVKKKQN-NH2; lactam 7-11; SMILES CC(=O)N[C@H](C(=O)N[C@@H](CO)C(=O)N[C@@H](CCCCN)C(=O)N[C@@H](CC(C)C)C(=O)N[C@@H](CCCNC(=N)N)C(=O)N[C@@H](CO)C(=O)N[C@H]1CCC(=O)NCCCC[C@@H](C(=O)N[C@@H](CCCCN)C(=O)N[C@@H](CCC(N)=O)C(=O)N[C@@H](CC(N)=O)C(N)=O)NC(=O)[C@H](CCCCN)NC(=O)[C@H](C(C)C)NC(=O)[C@H](CC(C)C)NC1=O)C(C)C) [Compound 153] |  | 0.08 |  | 0.54 | 0.74 | 0.54 | -1.02E+04 deg cm^2 dmol^−1 | -6.79E+03 deg cm^2 dmol^−1 | -8.53E+03 deg cm^2 dmol^−1 | -3.68E+03 deg cm^2 dmol^−1 | 0 % inhib. | 0.08 OD | 0.54 | decreased helicity |
| Ac-(cyclo-5,9)-VSKL[ESQLK]KRKQN-NH2 (Ac-VSKLESQLKKRKQN-NH2; lactam 5-9; SMILES CC(=O)N[C@H](C(=O)N[C@@H](CO)C(=O)N[C@@H](CCCCN)C(=O)N[C@@H](CC(C)C)C(=O)N[C@H]1CCC(=O)NCCCC[C@@H](C(=O)N[C@@H](CCCCN)C(=O)N[C@@H](CCCNC(=N)N)C(=O)N[C@@H](CCCCN)C(=O)N[C@@H](CCC(N)=O)C(=O)N[C@@H](CC(N)=O)C(N)=O)NC(=O)[C@H](CC(C)C)NC(=O)[C@H](CCC(N)=O)NC(=O)[C@H](CO)NC1=O)C(C)C) [Compound 151] | significantly inhibit cell migration | 0.01 |  | 0.70 | 0.82 | 0.70 | -1.62E+04 deg cm^2 dmol^−1 | -9.25E+03 deg cm^2 dmol^−1 | -1.33E+04 deg cm^2 dmol^−1 | -6.45E+03 deg cm^2 dmol^−1 | 59 % inhib. | 0.01 OD | 0.70 | alpha-helical character equal to that of the linear peptide |
